# Experimental data published in patent publication US11447754B2, “In vitro methods of chemical conversion using non-stereospecific glutathione lyases” (WISCONSIN ALUMNI RESEARCH FOUNDATION, priority 2017, dated 2022).
# Positions count from the first letter of the chain named. Numbers in names are those of the source.
# B1: Escherichia coli ecYghU, Nu-class glutathione-S-transferase, wild type, SEQ ID NO:26; recombinant, residues 21-313 of SEQ ID NO:28 (Escherichia coli K-12) (protein)
# chain: MTDNTYQPAKVWTWDKSAGGAFANINRPVSGPTHEKTLPVGKHPLQLYSLGTPNGQKVTIMLEELLALGVTGAEYDAWLIRIGDGDQFSSGFVEVNPNSKIPALRDHTHNPPIRVFESGSILLYLAEKFGYFLPQDLAKRTETMNWLFWLQGAAPFLGGGFGHFYHYAPVKIEYAINRFTMEAKRLLDVLDKQLAQHKFVAGDEYTIADMAIWPWFGNVVLGGVYDAAEFLDAGSYKHVQRWAKEVGERPAVKRGRIVNRTNGPLNEQLHERHDASDFETNTEDKRQG
# notes: E. coli B834
# B2: Escherichia coli ecYfcG, Nu-class glutathione-S-transferase, wild type, SEQ ID NO:30 (Escherichia coli K-12) (protein)
# chain: MIDLYFAPTPNGHKITLFLEEAELDYRLIKVDLGKGGQFRPEFLRISPNNKIPAIVDHSPADGGEPLSLFESGAILLYLAEKTGLFLSHETRERAATLQWLFWQVGGLGPMLGQNHHFNHAAPQTIPYAIERYQVETQRLYHVLNKRLENSPWLGGENYSIADIACWPWVNAWTRQRIDLAMYPAVKNWHERIRSRPATGQALLKAQLGDERSDS
# notes: E. coli B834
# B3: Novosphingobium aromaticivorans DSM 12444 NaGSTNu (Saro_2595), Nu-class glutathione-S-transferase, wild type, SEQ ID NO:18; recombinant, residues 21-313 of SEQ … (protein)
# chain: MSSEYVPPKVWKWDKANGGAFASVNRPVAGPTSERELPVGKHPFQVYSLGTPNGQKATIMLEELLQLGFSEAEYDAWLIKIFEGDQFTSGFVDINPNSKIPAMVDRSGPEPFRVFESGAILMHLAEKFGVFLPTSGPARAECLSWLFWQVGSAPFIGGGFGHFYNYAPIKIEYAIDRYAMETKRLFDVANRRLAESRYLAGDEYTIADLATYTWFGNIYRGEAYGEAATFLSMHEYEHVGRWVGEIDARPGVLRGRLVNSSKGLAERHDASDFDALPPESLQAIVKGF
# notes: E. coli B834
# B4: Novosphingobium aromaticivorans BaeA (Saro_2872/Saro_2873 heterodimer, SEQ ID NO:40/SEQ ID NO:42) variant 2:S14A/3:S15A (Ser14 of Saro_2872 and Ser15 of … (protein)
# chain 1: MSALLYHGEPNGAALTVLAALAETGLDIECRRIDLLAGERHSLPGIVDPVALDLSIEGEGPVLVIDGEAMTESVFLAQYLDEAAGGVGLQPTDAYARWEMMMWCRQITERLSPAAALLGNLATSQSAIAAIPAEDFAILAARIVSDDLRERWQALNDDAVNAAQVADSETKVAAAVDRCEKQLGDGREWLMGTFSIADLVTYSWLAGMEPLRPAAFADAPLVKAWLARTAARPCVQAALARATISEPLRAWAPGPEINRWG
# chain 2: MDEVSLYHWEPNANAGKPMLALMEKGVPFSSHYIDMLQFDQHKPEYLAINPQGTIPAMTHNGQVLTESTAIMEYVNDRFDGPDLMPADAQDRWRVRWWMKFMDQWLGPSFSMIGWSVFVGPMVRQRDPAELAAAIDRIPLPERRTAWRKAINGDFSESEMAESRRRVGLGIAKLEEELGKRPYVGSNQYSLADINIFNSTYSLPISQPDLAGKDRTPNIMRWLKRVYTREAVKKTWAMGKTDLAHRYGLIMAEIEG
# notes: His8 tag removed by TEV
# B5: Novosphingobium aromaticivorans BaeA (Saro_2872/Saro_2873 heterodimer, SEQ ID NO:40/SEQ ID NO:42) variant 3:N14A (Asn14 of Saro_2873 to Ala) (Novosphingobium … (protein)
# chain 1: B4 chain 1 with A14S
# chain 2: B4 chain 2 with N14A, A15S
# notes: His8 tag on Saro_2872 removed by TEV
# B6: ecYfcG: Nu-class GST from Escherichia coli DH5a, SEQ ID NO:30 (protein, listed as Escherichia coli)
# chain: B2 chain
# Columns and labels:
# [1] = substrate: COc1cc(C(=O)[C@@H](CO)SC[C@H](NC(=O)CC[C@H](N)C(=O)O)C(=O)NCC(=O)O)ccc1O; assay: Kinetics of GS-HPV cleavage into HPV by ecYghU; format: biochemical, Escherichia coli DH5α; conditions: other: GS-HPV into HPV, 195 nM enzyme, GSH, pH 8.5, 25° C.
# Text: (§1) Enzyme purifications. Genes Saro_2595, E. coli yghU, E. coli yfcG, and SLG_04120 from Sphingobium sp. SYK-6 (codon-optimized for expression in E. coli) were individually cloned into plasmid pVP302K (Gall and Ralph et al. 2014) so that transcripts from the plasmids would be translated into proteins containing a His8-tag connected to the N-terminus via a tobacco etch virus (TEV) protease recognition site. Recombinant proteins were expressed in E. coli B834 (Wood 1966, Doherty et al. 1995) containing plasmid pRARE2 (Novagen, Madison, Wis.) grown for ˜24 h at 27° C. in ZYM-5052 Autoinduction Medium (Studier 2005) containing kanamycin and chloramphenicol. Recombinant proteins were purified essentially as described previously (Gall and Kim et al. 2014); see below for modifications to the procedure. After removal of His8-tags using TEV protease, recombinant proteins retained a Ser-Ala-Ile-Ala-Gly-peptide on their N-termini, derived from the linker between the protein and the TEV protease recognition site. Recombinant LigE and LigF1 from N. aromaticivorans were purified as previously described (Gall and Ralph et al. 2014).
# (§2) Kinetics analysis of GS-HPV cleavage. The Reaction Buffer (RB) consisted of 25 mM Tris-HCl (pH 8.5) and 25 mM NaCl. The β(R)- and β(S)-stereoisomers of GS-HPV were separately generated by incubating racemic MPHPV (0.46 mM) in RB with 5 mM reduced glutathione (GSH) and either 38 μg/mL LigF1 or 36 μg/mL LigE, respectively, for several h. This sample, containing a single GS-HPV stereoisomer, guaiacol, and the unreacted MPHPV stereoisomer, was diluted with RB to achieve the desired concentration of GS-HPV for the time course reaction (0.005, 0.011, 0.022, 0.096, or 0.193 mM). An additional 5 mM GSH (dissolved in RB) was added prior to initiation of each time course. At time zero, 100 μL of the indicated enzyme sample (resuspended in RB) was combined with 1800 μL of the diluted GS-HPV reaction mixture to achieve final concentrations of 8 nM NaGSTNu, 195 nM ecYghU, 195 nM ecYfcG, or 47 nM (for β(R)-GS-HPV reactions) or 18 nM (for β(S)-GS-HPV reactions) SYK6GSTNu. Assays were performed at 25° C., and at specified time points, 300 μL of the reaction was removed and combined with 100 μL 1 M HCl (Acros Organics; Geel, Belgium) to stop the reaction before HPLC analysis to quantify HPV formed.
# (§3) HPLC analysis. After extracellular aromatics were identified using LC-MS, routine analysis and quantification of aromatics were performed using an Ultra AQ C18 5 μm column (Restek, Bellefonte, Pa.) attached to a System Gold HPLC (Beckman Coulter, Brea, Calif.) with running buffers and chromatography conditions described in FIG. 14. The eluent was analyzed for light absorbance between 191 and 600 nm, and absorbances at 280 nm were used for quantification of aromatic metabolites by comparing peak areas to those of standards (retention times of measured metabolites are shown in FIG. 15).
# [2] = substrate: COc1cc(C(=O)[C@H](CO)SC[C@H](NC(=O)CC[C@H](N)C(=O)O)C(=O)NCC(=O)O)ccc1O; assay: Kinetics of GS-HPV cleavage into HPV by ecYghU; format: biochemical, Escherichia coli DH5α; conditions: other: GS-HPV into HPV, 195 nM enzyme, GSH, pH 8.5, 25° C.
# Text: as §1, §2, §3
# [3] = Kinetics of GS-HPV cleavage, comparisons between enzymes over both stereoisomers; format: biochemical
# Description: as §2, §3
# [4] = substrate: COc1cc(C(=O)[C@@H](CO)SC[C@H](NC(=O)CC[C@H](N)C(=O)O)C(=O)NCC(=O)O)ccc1O; assay: Kinetics of GS-HPV cleavage into HPV by ecYfcG; format: biochemical, Escherichia coli DH5α; conditions: other: GS-HPV into HPV, 195 nM enzyme, GSH, pH 8.5, 25° C.
# Text: as §1, §2, §3
# [5] = substrate: COc1cc(C(=O)[C@H](CO)SC[C@H](NC(=O)CC[C@H](N)C(=O)O)C(=O)NCC(=O)O)ccc1O; assay: Kinetics of GS-HPV cleavage into HPV by ecYfcG; format: biochemical, Escherichia coli DH5α; conditions: other: GS-HPV into HPV, 195 nM enzyme, GSH, pH 8.5, 25° C.
# Text: as §1, §2, §3
# [6] = substrate: COc1cc(C(=O)[C@@H](CO)SC[C@H](NC(=O)CC[C@H](N)C(=O)O)C(=O)NCC(=O)O)ccc1O; assay: Kinetics of GS-HPV cleavage into HPV by NaGSTNu; format: biochemical, Novosphingobium aromaticivorans DSM 12444; conditions: other: GS-HPV into HPV, 8 nM enzyme, GSH, pH 8.5, 25° C.
# Text: as §1, §2, §3
# [7] = substrate: COc1cc(C(=O)[C@H](CO)SC[C@H](NC(=O)CC[C@H](N)C(=O)O)C(=O)NCC(=O)O)ccc1O; assay: Kinetics of GS-HPV cleavage into HPV by NaGSTNu; format: biochemical, Novosphingobium aromaticivorans DSM 12444; conditions: other: GS-HPV into HPV, 8 nM enzyme, GSH, pH 8.5, 25° C.
# Text: as §1, §2, §3
# [8] = substrate: COc1cc(C(=O)[C@@H](CO)Oc2ccccc2OC)ccc1O; assay: Kinetics of the enzymatic cleavage of β(R)-MPHPV by BaeA (2:S14A/3:S15A); format: biochemical, Novosphingobium aromaticivorans; conditions: other: β(R)-MPHPV into GS-HPV, 24 nM dimeric enzyme, 5 mM GSH, pH 8.0, 25° C.
# Description: To generate mutant […], pVP302K/2873-H2872(S14A) was amplified by kinase phosphorylated primers “Saro2873-S15A_R” and “Saro2873-S15A_F”. The linear fragment was circularized using T4 DNA ligase to generate plasmid pVP302K/2873(S15A)-H2872(S14A).
# (§4) Expression and purification of recombinant enzymes. Recombinant proteins were expressed using the plasmids described above in E. coli B834 containing plasmid pRARE2 (Novagen) grown for ˜25 hours at 25° C. in ZYM-5052 Autoinduction Medium containing kanamycin and chloramphenicol. Recombinant proteins were purified using a Ni^2+-NTA column as described in Example 1 above, except using gravity-flow columns instead of an FPLC system. After removal of His8-tags using Tev protease, recombinant proteins retained a Ser-Ala-Ile-Ala-Gly-peptide on their N-termini, derived from the linker between the protein and the Tev protease recognition site. Recombinant LigF1 was purified as previously described (Gall and Ralph et al. 2014).
# Kinetics of the enzymatic cleavage of β(R)-MPHPV. Various concentrations of racemic MPHPV (equal amounts of the β(S)- and β(R)-stereoisomers) were combined with 5 mM GSH in RB. At time zero, 100 μL of a given enzyme in RB+5 mM GSH was combined with 1000 μL of the racemic MPHPV/GSH sample at 25° C. (both samples were equilibrated to 25° C. before mixing). Final concentrations of β(R)-MPHPV in each reaction were 0.0045, 0.010, 0.017, 0.068, or 0.13 mM. […] At specified time points, 200 μL of a reaction was removed and combined with 40 μL of 1 M HCl (Acros Organics) to stop the reaction before HPLC analysis to quantify GS-HPV formed. […]
# (§5) HPLC analysis. Analysis and quantification of aromatic compounds were performed using an Ultra AQ C18 5 μm column (Restek) attached to a System Gold HPLC (Beckman Coulter) with running buffers and methods described in Example 1. The eluent was analyzed for light absorbance between 191 and 600 nm, and absorbances at 280 nm were used for quantification of aromatic metabolites by comparing peak areas to those of standards.
# [9] = substrate: COc1cc(C(=O)[C@@H](CO)Oc2ccccc2OC)ccc1O; assay: Kinetics of the enzymatic cleavage of β(R)-MPHPV by BaeA (3:N14A); format: biochemical, Novosphingobium aromaticivorans; conditions: other: β(R)-MPHPV into GS-HPV, 98 nM dimeric enzyme, 5 mM GSH, pH 8.0, 25° C.
# Text: To generate mutant 2:S14A, pVP302K/2873-H2872 was amplified by kinase phosphorylated primers “Saro2872-S14A_R” and “Saro2872-S14A_F”. To generate mutant 3:S15A, pVP302K/H2873-2872 was amplified by kinase phosphorylated primers “Saro2873-S15A_R” and “Saro2873-S15A_F”. To generate mutant 3:N14A, pVP302K/2873-H2872 was amplified by kinase phosphorylated primers “Saro2873-S15A_R” and “Saro2873-N14A_F”. These linear fragments were separately circularized using T4 DNA ligase to generate plasmids pVP302K/2873-H2872(S14A), pVP302K/H2873(S15A)-2872, and pVP302K/2873(N14A)-H2872, respectively.
# as §4
# Kinetics of the enzymatic cleavage of β(R)-MPHPV. Various concentrations of racemic MPHPV (equal amounts of the β(S)- and β(R)-stereoisomers) were combined with 5 mM GSH in RB. […] At specified time points, 200 μL of a reaction was removed and combined with 40 μL of 1 M HCl (Acros Organics) to stop the reaction before HPLC analysis to quantify GS-HPV formed. […]
# as §5
molecule,measurement,setting,value
B1,Km,[1],28 µM
same,kcat,[1],0.43 s⁻¹
same,kcat/Km,[1],16000 M⁻¹ s⁻¹
same,Km,[2],12 µM
same,kcat,[2],0.29 s⁻¹
same,kcat/Km,[2],24000 M⁻¹ s⁻¹
same,"kcat/KM with GS-HPV, fold lower than those of NaGSTNu",[3],~100 fold
B2,Km,[4],160 µM
same,kcat,[4],0.04 s⁻¹
same,kcat/Km,[4],200 M⁻¹ s⁻¹
same,Km,[5],130 µM
same,kcat,[5],0.017 s⁻¹
same,kcat/Km,[5],140 M⁻¹ s⁻¹
B3,Km,[6],40 µM
same,kcat,[6],80 s⁻¹
same,kcat/Km,[6],1.9e+06 M⁻¹ s⁻¹
same,Km,[7],8 µM
same,kcat,[7],57 s⁻¹
same,kcat/Km,[7],8e+06 M⁻¹ s⁻¹
B4,Km,[8],120 ± 30 µM
same,kcat,[8],2.8 ± 0.5 s⁻¹
same,kcat/Km,[8],23000 ± 8000 M⁻¹ s⁻¹
B5,Km,[9],250 ± 60 µM
same,kcat,[9],0.14 ± 0.02 s⁻¹
same,kcat/Km,[9],500 ± 200 M⁻¹ s⁻¹
B6,"KM, fold higher than those of ecYghU",[3],~10 fold
same,"kcat, fold lower than those of ecYghU",[3],~10 fold
same,"kcat/KM with GS-HPV, fold lower than for ecYghU",[3],~100 fold
same,"kcat/KM with GS-HPV, fold lower than those of NaGSTNu",[3],~10^4 fold
